The results in this text go back to US20160326240A1 (published 2016).

Assay [1] deals with T1, human RGMc (human, UniProt Q6ZVN8 36-400, limits assumed).
T1 construct: ELISA antigen for the yeast-derived antibodies; a human RGMc-Fc was used for negative selection but the ELISA antigen is not specified
T1 sequence (looked up): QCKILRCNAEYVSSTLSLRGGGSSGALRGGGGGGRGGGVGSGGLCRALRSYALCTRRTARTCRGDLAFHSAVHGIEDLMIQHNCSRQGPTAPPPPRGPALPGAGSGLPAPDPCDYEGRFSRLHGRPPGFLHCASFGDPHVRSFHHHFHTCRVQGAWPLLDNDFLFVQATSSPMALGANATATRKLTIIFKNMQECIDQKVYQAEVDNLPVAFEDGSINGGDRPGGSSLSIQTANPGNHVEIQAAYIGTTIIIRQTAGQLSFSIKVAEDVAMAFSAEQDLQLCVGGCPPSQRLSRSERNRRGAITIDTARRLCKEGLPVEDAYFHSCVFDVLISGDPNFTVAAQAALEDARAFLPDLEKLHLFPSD
The assay can be described thus: ELISA. Background: ELISA stands for enzyme-linked immunosorbent assay.

Assay [2] addresses T2, hRGMc-His (human, UniProt Q6ZVN8 36-400, limits assumed).
T2 construct: also called human RGMc; not shown: His tag
T2 sequence (looked up): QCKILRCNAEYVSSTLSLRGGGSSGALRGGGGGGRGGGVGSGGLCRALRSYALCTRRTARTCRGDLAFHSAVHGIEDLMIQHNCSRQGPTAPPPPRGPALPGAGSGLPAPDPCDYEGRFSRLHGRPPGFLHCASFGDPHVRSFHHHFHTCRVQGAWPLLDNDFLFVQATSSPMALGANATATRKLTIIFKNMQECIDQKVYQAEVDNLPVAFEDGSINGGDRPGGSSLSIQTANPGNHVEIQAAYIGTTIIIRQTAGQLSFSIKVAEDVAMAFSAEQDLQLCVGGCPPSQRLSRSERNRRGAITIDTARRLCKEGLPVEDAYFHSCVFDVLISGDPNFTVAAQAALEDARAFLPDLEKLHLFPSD
The assay can be described thus: direct binding ELISA (hRGMc-His).

Assay [3] concerns the target T2, hRGMc-His. The assay can be described thus: hRGMc-His ELISA.
For assay [4], the target named is T3, hRGMa-His (human, UniProt Q96B86 48-422, limits assumed).
T3 construct: also called human RGMa (BIAcore); not shown: His tag
T3 sequence: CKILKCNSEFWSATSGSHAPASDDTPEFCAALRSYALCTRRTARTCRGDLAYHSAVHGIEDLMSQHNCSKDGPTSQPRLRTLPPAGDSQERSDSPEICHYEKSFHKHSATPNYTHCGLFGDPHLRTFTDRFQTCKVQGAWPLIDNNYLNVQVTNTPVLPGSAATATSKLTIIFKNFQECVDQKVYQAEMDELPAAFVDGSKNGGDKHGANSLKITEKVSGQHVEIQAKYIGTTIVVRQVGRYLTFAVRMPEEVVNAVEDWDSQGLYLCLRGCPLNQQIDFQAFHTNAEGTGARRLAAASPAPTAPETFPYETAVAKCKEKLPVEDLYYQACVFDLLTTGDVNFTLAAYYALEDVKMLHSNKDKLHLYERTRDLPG
The assay can be described thus: BIAcore. A general note: In SPR one partner is held on a chip, and binding of the other changes the refractive index at the surface.

For assay [5], the target named is T4, Cyno RGMa-His (cynomolgus monkey, UniProt Q9N0A6 54-431, limits assumed).
T4 construct: also called cynomolgus (cyno) monkey RGMa (BIAcore); not shown: His tag
T4 sequence (looked up): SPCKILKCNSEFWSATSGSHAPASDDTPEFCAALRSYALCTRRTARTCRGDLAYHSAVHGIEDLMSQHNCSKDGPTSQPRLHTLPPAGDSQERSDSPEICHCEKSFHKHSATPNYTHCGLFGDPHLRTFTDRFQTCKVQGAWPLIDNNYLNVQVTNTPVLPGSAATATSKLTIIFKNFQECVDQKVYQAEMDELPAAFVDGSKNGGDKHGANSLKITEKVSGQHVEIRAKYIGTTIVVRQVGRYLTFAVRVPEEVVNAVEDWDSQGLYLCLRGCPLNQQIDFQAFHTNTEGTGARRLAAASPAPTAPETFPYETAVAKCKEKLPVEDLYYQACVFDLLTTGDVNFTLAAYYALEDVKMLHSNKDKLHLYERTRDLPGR
The assay can be described thus: BIAcore.

The target of assay [6] is T2, hRGMc-His. Briefly: BIAcore binding.

B1: AE12-15 (antibody, V domains shown)
VH: EVQLVQSGAEVKEPGASVKVSCKASGYTFTDYYIQWVRQAPGHGLEWMGWINPKTGGTNYLQKFQGRVTMTRDTSTRTAYMELSSLRSDDTAFYYCVREDMNTVLATSWFDPWGQGTLVTVSS
VL: SYELTQPPSVSVSPGQTARITCSGNQLGHKFASWYQQKPGQSPVVVIYEDKKRPSGIPERFSGSNSGNTATLTISGTQAMDEADYYCQVWDVITDHYVFGTGTKVTVLG
notes: lambda light chain
On to B1, for which the binding result in assay [1] is “binds”.

B2: AE12-5 (antibody, V domains shown)
VH: EVQLVQSGAEVKKPGASVKVSCKVSGHSLSELTIHWVRQAPGKGLEWMGGFDPEDGRGTYAPNFRGRVTMTEDTSTDTAYMELSGLRSEDAAVYYCATLLGEYDSYFDLWGRGTLVTVSS
VL: DVVMTQSPDFQSVTPEDKVTITCRASQSIGSCLHWYQQKPDQSPKLLIKYASQSISGVPSRFSGSGSGTDFTLTINSLEAEDAATYYCHQSSSLPYTFGQGTKLEIK
notes: kappa light chain
Turning to B2, the binding result in assay [2] is “no binding (tested: 100 nM)”.

B3: AE12-8 (antibody, V domains shown)
VH: EVQLLESGGGLVKPGGSLRLSCAASGFTFDDYAMHWVRQAPGKGLEWVSLISWDGGSTYYADSVKGRFTISRDNSKNSLYLQMNSLRAEDTALYYCAKDIPKVGGYSYGYGALGYWGQGTPVTVSS
VL: SYELTQPPSVSVAPGQTARITCGGNNIGDISVHWYQQKSGQAPMLVVHDDSDRPSGIPERFSGSNSGSSATLTISRVEAGDEADYHCQVWDSGSGHHVFGTGTKVTVL
notes: lambda light chain
For the molecule B3, the binding result in assay [3] was “binds”.

B4: AE12-7 (antibody, V domains shown)
VH: EVQLVESGGGLVQPGGSLRLSCAASGFTSSSYAMTWVRQAPGKGLEWVSGISGSGESTYYADSVKGRFTISRDNSKNTLYLQMNSLRVEDTAIYYCARQGYGAHDYWGQGTLVTVSS
VL: not shown
notes: lambda light chain
For the molecule B4, the binding result in assay [3] is “binds”.

B5: AE12-2 (antibody, V domains shown)
VH: EVQLVQSGAEVKKPGASVKVSCKASGYTFTSYDINWVRQATGQGLEWMGWMNPNSGNTGYAQKFQGRVTMTRNTSISTAYMELSSLRSEDTAVYYCARSTSLSVWGQGTLVTVSS
VL: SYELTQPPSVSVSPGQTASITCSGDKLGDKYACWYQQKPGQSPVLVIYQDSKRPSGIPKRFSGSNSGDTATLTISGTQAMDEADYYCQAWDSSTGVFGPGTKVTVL
notes: lambda light chain
B5: the binding result in assay [2] is recorded as “no binding (tested: 100 nM)”.

B6: AE12-3 (antibody, V domains shown)
VH: EVQLVESGGGLVQPGRSLRLSCAASGFTFDDYAMHWVRQAPGKGLEWVAVISYDGSNKYYADSVKGRFTISRDNSKNTLYLQMNSLRAEDTAVYYCARERVYSSGKEGYYYGMDVWGQGTMVTVSS
VL: QSGLTQPPSVSAAPGQRVTISCTGSGSNIGAGYGVHWYQQLPATAPKILIYGDYNRPSGVPDRFSGSRSGTSASLTITGLQAEDEADYYCQSYDNSLRGVLFGGGTKLTVL
notes: lambda light chain
Regarding B6, the binding result in assay [2] is “no binding (tested: 100 nM)”.

B7: AE12-13 (antibody, V domains shown)
VH: EVQLQESGAGLLKPSETLSLTCAVYGGSFSGYYWSWIRQPPGKGLEWIGEINHSGSTNYNPSLKSRVTISVDTSKNQFSLKLSSVTAADTAVYYCARDDGAGVFDLWGRGTLVTVSS
VL: DIQLTQSPSSLSASVGDGVTITCQASQDISNYLNWYQQKPGKAPKLLIYDASNLETGVPSRFSGSGSGTFFTLTINNLQPEDFATYYCQQSGNTPWTFGQGTKVEINR
notes: kappa light chain
For B7, in assay [1], the binding result is listed as “binds”.

B8: AE12-1-H (antibody, V domains shown)
VH: EVQLVQSGAEVKKPGASVKVSCKASGYTFTSHGISWVRQAPGQGLDWMGWISPYSGNTNYAQKLQGRVTMTTDTSTSTAYMELSSLRSEDTAVYYCARVGSGPYYYMDVWGQGTLVTVSS
VL: QSALTQPRSVSGSPGQSVTISCTGTSSSVGDSIYVSWYQQHPGKAPKLMLYDVTKRPSGVPDRFSGSKSGNTASLTISGLQAEDEADYYCHSYAGTDTLFGGGTKVTVL
notes: AE12-1 variant; IgG
On to B8, for which, in assay [4], binding was characterised by a dissociation constant (Kd) of 3.8 nM; the koff (as a rule, the rate constant with which the complex falls apart) was 0.00012 s⁻¹; the kon (as a rule, a measure of how fast the partners come together) was found to be 32000 M⁻¹ s⁻¹. Further, in assay [5], the Kd (commonly the concentration at which binding is half-saturated) came out at 13.4 nM, the koff worked out at 0.00063 s⁻¹ and the kon was determined as 47000 M⁻¹ s⁻¹. Further, the binding result in assay [6] is given as “no binding”.

B9: AE12-1-K (antibody, V domains shown)
VH: EVQLVQSGAEVKKPGASVKVSCKASGYTFTSHGISWVRQAPGQGLDWMGWISPYSGNTNYAQKLQGRVTMTTDTSTSTAYMELSSLRSEDTAVYYCARVGSGPYYYMDVWGQGTLVTVSS
VL: QSALTQPRSVSGSPGQSVTISCTGTSSSVGDSIYVSWYQQHPGKAPKLMLYDVTKRPSGVPDRFSGSKSGNTASLTISGLQAEDEADYYCKSYAGTDTLFGGGTKVTVL
notes: AE12-1 variant; IgG
Turning to B9, in assay [4], the Kd is 8.8 nM, the dissociation rate constant (koff) was 0.0003 s⁻¹ and the kon turned out to be 34000 M⁻¹ s⁻¹. In assay [5], this molecule had a Kd of 9.3 nM, a dissociation rate constant (koff) of 0.00047 s⁻¹ and a kon of 51000 M⁻¹ s⁻¹. In addition, the binding result in assay [6] is given as “no binding”.

B10: AE12-1-V (antibody, V domains shown)
VH: EVQLVQSGAEVKKPGASVKVSCKASGYTFTSHGISWVRQAPGQGLDWMGWISPYSGNTNYAQKLQGRVTMTTDTSTSTAYMELSSLRSEDTAVYYCARVGSGPYYYMDVWGQGTLVTVSS
VL: QSALTQPRSVSGSPGQSVTISCTGTSSSVGDSIYVSWYQQHPGKAPKLMLYDVTKRPSGVPDRFSGSKSGNTASLTISGLQAEDEADYYCVSYAGTDTLFGGGTKVTVL
notes: AE12-1 variant; read as AE12-1-V from the order of the variants; IgG
Turning to B10, in assay [4], the Kd turned out to be 5.9 nM, the koff turned out to be 0.00015 s⁻¹ and the kon was found to be 25000 M⁻¹ s⁻¹. In assay [5], this molecule returned a Kd of 9.2 nM, a koff of 0.00099 s⁻¹ and a kon of 110000 M⁻¹ s⁻¹. For the same molecule, the binding result in assay [6] is reported as “no binding”.

B11: AE12-1-I (antibody, V domains shown)
VH: EVQLVQSGAEVKKPGASVKVSCKASGYTFTSHGISWVRQAPGQGLDWMGWISPYSGNTNYAQKLQGRVTMTTDTSTSTAYMELSSLRSEDTAVYYCARVGSGPYYYMDVWGQGTLVTVSS
VL: QSALTQPRSVSGSPGQSVTISCTGTSSSVGDSIYVSWYQQHPGKAPKLMLYDVTKRPSGVPDRFSGSKSGNTASLTISGLQAEDEADYYCISYAGTDTLFGGGTKVTVL
notes: AE12-1 variant; IgG
In assay [4], B11 registered a Kd of 4.5 nM, a koff of 0.00013 s⁻¹ and a kon of 30000 M⁻¹ s⁻¹. Besides, in assay [5], the Kd is 8.9 nM, the koff came to 0.00087 s⁻¹ and the kon is 99000 M⁻¹ s⁻¹. In addition, the binding result in assay [6] is given as “no binding”.

B12: AE12-1-L (antibody, V domains shown)
VH: EVQLVQSGAEVKKPGASVKVSCKASGYTFTSHGISWVRQAPGQGLDWMGWISPYSGNTNYAQKLQGRVTMTTDTSTSTAYMELSSLRSEDTAVYYCARVGSGPYYYMDVWGQGTLVTVSS
VL: QSALTQPRSVSGSPGQSVTISCTGTSSSVGDSIYVSWYQQHPGKAPKLMLYDVTKRPSGVPDRFSGSKSGNTASLTISGLQAEDEADYYCLSYAGTDTLFGGGTKVTVL
notes: AE12-1 variant; IgG; also called AE-12-L
In assay [4], B12 registered a Kd of 6.6 nM, a koff of 0.00025 s⁻¹ and an on-rate (kon) of 38000 M⁻¹ s⁻¹. In addition, in assay [5], the affinity, expressed as Kd, was 10.1 nM; the koff came to 0.00067 s⁻¹; the kon stood at 62000 M⁻¹ s⁻¹. Further, the binding result in assay [6] is recorded as “no binding”.

B13: AE12-23 (antibody, V domains shown)
VH: EVQLQESGPGLVKPSETLSLTCTVSGGSISGYYWSWIRQSPGKGLEWIGEIFHTGRTYYNPSLRSRLTISVDTSKNQFSLKLSSLTAADTAVYYCARDSAFGSFDYWGQGTLVTVSS
VL: DIRVTQSPSSLSASVGDRVTITCQANEDISIYLNWYQQRPGKAPKLLIYDASNLETGVPSRFSGSGSGTDFTFTISSLQPEDFATYYCQQYHTYPFTFGGGTKVDIKR
notes: kappa light chain
As to B13, in assay [1], the binding result is “binds”.
